Data set [1] has as its target T1, BCL-XLΔC (Homo sapiens, UniProt Q07817). The data set can be described thus: fluorescence polarization.
Target sequence in this assay (Q07817 1-212, stated change not applied): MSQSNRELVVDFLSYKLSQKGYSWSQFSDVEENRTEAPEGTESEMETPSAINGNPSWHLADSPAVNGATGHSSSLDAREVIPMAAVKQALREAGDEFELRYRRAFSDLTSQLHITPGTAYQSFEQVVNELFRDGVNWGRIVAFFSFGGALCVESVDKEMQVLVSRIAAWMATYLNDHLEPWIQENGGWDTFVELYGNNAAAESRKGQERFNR
Data set [2] relates to mouse embryonic fibroblasts (MEFs). The data set can be described thus: ImageXpress microscopy cellular uptake of FITC-peptides (TIFI). The format is cell-based. Conditions: MEFs 2×10^4 cells/well, 500 nM FITC-peptide, 4 h, 0% FBS, per cell basis. From the text: The cellular penetrance of a peptide of interest can be assessed by any method known in the art. For example, ImageXpress microscopy analysis may be employed as described in Example 1. The total internalized FITC intensity (TIFI) can be used as a way to determine cellular uptake of a hydrocarbon-stapled and/or stitched peptide by a cell (e.g., any cell described herein). Methods of determining TIFI are described in detail in Examples 2 and 3 of the instant specification. Briefly, a custom module (CM) was created to develop a rigorous quantitation platform for measuring cellular uptake of hydrocarbon-stapled and/or stitched peptides derivatized with a FITC fluorophore at the N-terminus. The CM was developed based on (1) defining the parameters of cellular uptake (e.g., excluding extracellular aggregates and auto-fluorescent debris), (2) defining a pixel boundary to avoid quantitation of extracellular, membrane-adherent peptides, (3) excluding out-of-focus fluorescence from the FITC signal outliers. Once the CM parameters are set, images can be acquired at 20× and 40× magnification for per cell basis fluorescence, and four distinct central locations of the cellular field are visualized. Next signal-to-noise ratios are maximized to ensure optimal sensitivity and specificity of internal FITC-peptide signal. […]

A short description of data set [3]: Percent α-helicity by circular dichroism. The data set is classed as physicochemical. Conditions: 222 nm. Here is the method: FIG. 19 is a table showing the sequence composition and biophysical parameters of a BIM BH3 staple scanning library. Hydrophobicity was calculated using techniques generally known in the art^39, with “X” assigned the hydrophobicity value of Leu. Retention time in minutes reflects the peptide elution time from an HPLC C18 column (Agilent, 1200) run for 20 minutes using a 5-95% water: acetonitrile gradient (10 mM ammonium carbonate). Percent α-helicity of stapled peptides (50 μM, 10% acetonitrile in water) was derived from circular dichroism spectra using the mdeg value at 222 nm, as described^34. Net charge was calculated by summing the positive and negative charges of Arg and Asp/Glu, respectively. The isoelectric point (pI) calculation employed the EMBOSS values for pKa.
The alpha-helicity of a peptide of interest can be determined by any method known in the art. In some cases, circular dichroism or nuclear magnetic resonance spectroscopy (NMR) may be employed. Peptides are dissolved in an aqueous solution (e.g., 5 mM potassium phosphate solution at pH 7, or distilled H2O, to concentrations of 25-50 μM). […] The α-helical content of each peptide is calculated by dividing the mean residue ellipticity by the reported value for a model helical decapeptide (Yang et al., Methods Enzymol. 130:208 (1986)). […]
In general terms: Circular dichroism is widely used to follow secondary structure.

Data set [4] deals with SAOS-2 cells. The data set can be described thus: Epifluorescence (IXM) microscopy cellular penetrance of ATSP-7041. The format is cell-based. From the text:
Error bars represent mean±s.d.
Images were acquired by IXM.

For data set [5], the system named is cells. Conditions: 20 μM peptide.
Text: Data are normalized based on the response to treatment with 1% Triton X-100 (100% release) and media alone (0% LDH release). Error bars are mean±s.d.
For data set [6], the target named is T1, BCL-XLΔC. The data set can be described thus: IC50 (nM). Details: BCL-XL ΔC was expressed as a glutathione-S-transferase (GST) fusion protein; GST (N, cleaved yes); made in house; host or cells: Escherichia coli BL21 (DE3), pGEX2T vector. From the text: Table printed on a drawing sheet, FIG. 4B
Head of the field: IC50 (nM)
First copying reader's note: The table is the legend of a binding plot (mP vs [BCL-XL ΔC], M); plot marker symbols before each sequence are left out, and some mutated residues are printed inside a box.

Data set [7] concerns BCL-XL-reconstituted p185^+Arf^−/−Mcl-1^del B-ALL cells. The data set can be described thus: LDH release assay (membrane lysis) in B-ALL cells. The note with it: 10 μM peptide, 30 min, serum-free.
Experimental: Data are normalized based on the response to treatment with 1% Triton X-100 (100% release) and media alone (0% LDH release). Error bars are mean±s.d. for experiments performed in technical duplicate and repeated twice.
B-ALL and Jurkat T cells were plated in 96-well format (2×10^4 cells per well) in serum-free RPMI. […] The plate was centrifuged at 1500 rpm for 5 min at 4° C., and 80 μL of cell culture media was transferred to a clear plate (Corning), incubated with 80 μL of LDH reagent (Roche) for 15 min while shaking, and absorbance measured at 490 nm on a microplate reader (SpectraMax M5 Microplate Reader, Molecular Devices).
In order to identify compounds whose cytotoxicity correlates with the capacity for cellular uptake and intracellular target engagement, it is important to rule out nonspecific cytotoxicity due to potential plasma membrane lysis.

For orientation: IC50 means the concentration that inhibits the measured activity by half. Higher therefore signals weaker potency.

Positions of bridges follow the written chain, without caps; N, C: chain ends. Non-standard residues stand in square brackets, D forms with d. Residues, ends and D or L forms follow the SMILES beside them. No end group written: not given here. *: point of attachment. FITC = O=C1OC2(c3ccc(O)cc3Oc3cc(O)ccc32)c2ccc(NC(=S)*)cc21; R8 = C=CCCCCCC[C@@](C)(N)C(=O)O; Cba = N[C@@H](CC1CCC1)C(=O)O; S5 = C=CCCC[C@](C)(N)C(=O)O; βAla = NCCC(=O)O

Take IWIAQLLRXIGDXFNAYYARR: in data set [1], the IC50 is greater than 1000 nM.
As to BIM SAHBA1, the IC50 in data set [1] amounted to 13.8 nM.
For the molecule `CC[C@H](C)[C@H](NC(=O)CCNC(=S)Nc1ccc2c(c1)C(=O)OC21c2ccc(O)cc2Oc2cc(O)ccc21)C(=O)N[C@@H](Cc1c[nH]c2ccccc12)C(=O)N[C@H](C(=O)N[C@@H](C)C(=O)N[C@@H](CCC(N)=O)C(=O)N[C@@H](CCC(=O)O)C(=O)N[C@@H](CC(C)C)C(=O)N[C@@H](CCCNC(=N)N)C(=O)N[C@@]1(C)CCCC=CCCC[C@@](C)(C(=O)N[C@@H](Cc2ccccc2)C(=O)N[C@@H](CC(N)=O)C(=O)N[C@@H](CCC(=O)O)C(=O)N[C@@H](Cc2ccc(O)cc2)C(=O)N[C@@H](Cc2ccc(O)cc2)C(=O)N[C@@H](C)C(=O)N[C@@H](CCCNC(=N)N)C(=O)N[C@@H](CCCNC(=N)N)C(N)=O)NC(=O)[C@H](CC(=O)O)NC(=O)CNC(=O)[C@H]([C@@H](C)CC)NC1=O)[C@@H](C)CC` [A161E, IWIAQELRXIGDXFNEYYARR], in data set [2], the “total internalized FITC intensity (TIFI), cellular uptake” value was “retention of high level TIFI”.
With “LTFZEYWANCbXSAA (LTF[R8]EYWAN[Cba][S5]SAA; staple 4-11) [ATSP-7041]”, the α-helicity in data set [3] is given as 70%. In addition, in data set [4], the “cellular penetrance (TIFI value)” value is “effective cellular penetrance”. The “nonspecific membrane lytic properties (LDH release)” value in data set [5] was “lacks nonspecific membrane lytic properties”.
IWIAQELRXIGDXFNAIYARR came in with an IC50 in data set [1] of 59.4 nM.
`CC[C@H](C)[C@H](NC(=O)CCNC(=S)Nc1ccc2c(c1)C(=O)OC21c2ccc(O)cc2Oc2cc(O)ccc21)C(=O)N[C@@H](Cc1c[nH]c2ccccc12)C(=O)N[C@H](C(=O)N[C@@H](C)C(=O)N[C@@H](CCC(N)=O)C(=O)N[C@@H](CCC(=O)O)C(=O)N[C@@H](CC(C)C)C(=O)N[C@@H](CCCNC(=N)N)C(=O)N[C@@]1(C)CCCC=CCCC[C@@](C)(C(=O)N[C@@H](Cc2ccccc2)C(=O)N[C@@H](CC(N)=O)C(=O)N[C@@H](C)C(=O)N[C@@H](Cc2ccc(O)cc2)C(=O)N[C@@H](Cc2ccc(O)cc2)C(=O)N[C@@H](C)C(=O)N[C@@H](CCCNC(=N)N)C(=O)N[C@@H](CCCNC(=N)N)C(N)=O)NC(=O)[C@H](CC(C)C)NC(=O)CNC(=O)[C@H]([C@@H](C)CC)NC1=O)[C@@H](C)CC` [IWIAQELRXIGLXFNAYYARR] ({FITC-βAla}-IWIAQELR[S5]IGL[S5]FNAYYARR-NH2; staple 9-13) had an IC50 in data set [6] greater than 1000 nM.
On to `CC[C@H](C)[C@H](NC(=O)CCNC(=S)Nc1ccc2c(c1)C(=O)OC21c2ccc(O)cc2Oc2cc(O)ccc21)C(=O)N[C@@H](Cc1c[nH]c2ccccc12)C(=O)N[C@H](C(=O)N[C@@H](C)C(=O)N[C@@H](CCC(N)=O)C(=O)N[C@@H](CCC(=O)O)C(=O)N[C@@H](CC(C)C)C(=O)N[C@@H](CCCNC(=N)N)C(=O)N[C@@]1(C)CCCC=CCCC[C@@](C)(C(=O)N[C@@H](Cc2ccccc2)C(=O)N[C@@H](CC(N)=O)C(=O)N[C@@H](C)C(=O)N[C@@H](Cc2ccc(O)cc2)C(=O)N[C@@H](Cc2ccc(O)cc2)C(=O)N[C@H](C(=O)N[C@@H](CCCNC(=N)N)C(=O)N[C@@H](CCCNC(=N)N)C(N)=O)[C@@H](C)O)NC(=O)[C@H](CC(=O)O)NC(=O)CNC(=O)[C@H]([C@@H](C)CC)NC1=O)[C@@H](C)CC` [A164T, IWIAQELRXIGDXFNAYYTRR], for which the “LDH release, membrane lytic activity” value in data set [7] is “promote lysis”.
As to IWIALELRXIGDXFNAYYARR, the IC50 in data set [1] is greater than 1000 nM.
As for `CC[C@H](C)[C@H](NC(=O)CCNC(=S)Nc1ccc2c(c1)C(=O)OC21c2ccc(O)cc2Oc2cc(O)ccc21)C(=O)N[C@@H](CCCNC(=N)N)C(=O)N[C@H](C(=O)N[C@@H](C)C(=O)N[C@@H](CCC(N)=O)C(=O)N[C@@H](CCC(=O)O)C(=O)N[C@@H](CC(C)C)C(=O)N[C@@H](CCCNC(=N)N)C(=O)N[C@@]1(C)CCCC=CCCC[C@@](C)(C(=O)N[C@@H](Cc2ccccc2)C(=O)N[C@@H](CC(N)=O)C(=O)N[C@@H](C)C(=O)N[C@@H](Cc2ccc(O)cc2)C(=O)N[C@@H](Cc2ccc(O)cc2)C(=O)N[C@@H](C)C(=O)N[C@@H](CCCNC(=N)N)C(=O)N[C@@H](CCCNC(=N)N)C(N)=O)NC(=O)[C@H](CC(=O)O)NC(=O)CNC(=O)[C@H]([C@@H](C)CC)NC1=O)[C@@H](C)CC` [W147R, IRIAQELRXIGDXFNAYYARR], in data set [7], the “LDH release, membrane lytic activity” value is reported as “promote lysis”.
With IWIAQELRXIGDXFNAYYIRR, in data set [1], the IC50 came out at 45.7 nM.
